Experimental data: patent publication US20250387484A1 (US Dept. of Health and Human Services, published 2025)

T1: cynomolgus CD25 (cynomolgus, UniProt H6WS54 22-213)
T1 construct: Analyte in the SPR assay; also called CD25 (sIL-2 Receptor α)
T1 sequence: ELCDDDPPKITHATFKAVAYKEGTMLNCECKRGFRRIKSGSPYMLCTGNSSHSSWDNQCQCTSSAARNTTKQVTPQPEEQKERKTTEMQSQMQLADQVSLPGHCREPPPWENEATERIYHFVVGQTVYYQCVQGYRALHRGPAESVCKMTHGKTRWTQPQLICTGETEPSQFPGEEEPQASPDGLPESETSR

T2: human CD25 on KIT-225 cells (human, UniProt P01589 22-272)
T2 construct: whole, on cells; also called hCD25; IL-2Rα
T2 sequence (looked up): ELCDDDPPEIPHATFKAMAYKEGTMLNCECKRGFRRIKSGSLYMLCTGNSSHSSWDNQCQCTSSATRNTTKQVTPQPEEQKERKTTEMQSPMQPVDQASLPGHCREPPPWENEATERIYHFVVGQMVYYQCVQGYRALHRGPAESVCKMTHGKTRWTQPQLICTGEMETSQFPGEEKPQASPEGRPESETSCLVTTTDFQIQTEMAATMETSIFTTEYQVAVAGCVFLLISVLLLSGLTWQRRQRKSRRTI


Columns and labels:
cynomolgus CD25 = target: T1, cynomolgus CD25; test: SPR, Biacore 8K, antibody captured on Protein A chip, cynomolgus CD25 as analyte, 25 C
Method: Running buffer was prepared by diluting one volume of 10× buffer with 9 volumes of degassed, filtered MilliQ water. Regeneration buffer (10 mM glycine) was prepared by dissolving glycine in MilliQ water and adjusting the pH to approximately 1.5-1.7. The assay was performed at 25° C. using HBS-EP+ as the running buffer. Antibodies were injected as capture on the Series S Sensor Chip Protein A. Antigens were diluted to multiple concentrations and injected over the surface of flow cell 1 and 2 as association phase, followed by injection of running buffer as dissociation phase.
All data were processed using the BIACORE™ 8K Evaluation software version 3.0. Flow cell 1 and blank injection of buffer in each cycle were used as double reference for Response Units (RU) subtraction. […] VH2+VL4 is a parental antibody (before affinity maturation).

[1] = target: T2, human CD25 on KIT-225 cells; test: flow cytometry (FACS) on CD25-expressing KIT-225 cells, secondary antibody, MFI against antibody concentration
Method: KIT-225 cells were washed once with FACS buffer, counted, and resuspended at a concentration of 1×10⁶/mL in FACS buffer. To 5 mL (5×10⁶ total) of cells, 25 μL of viable dye (Thermo Fisher, L34974, equivalent to 1:200 dilution) was added and mixed well. After incubation at 4° C. for 30 minutes, cells were washed twice with FACS buffer (200×g, 5 minutes each). Cells were resuspended in 5 mL FACS buffer and 100 μL was added per well, followed by addition of 100 μL diluted antibody. The solution was mixed by pipetting up and down and then incubated at 4° C. for 60 minutes, after which cells were washed twice with FACS buffer (200×g, 5 minutes each). Cells were resuspended in 100 μL FACS buffer. Fifty μL of secondary antibody was diluted in 5 mL FACS buffer (equivalent to 1:100 dilution), and 100 μL was added to each well and mixed by pipetting up and down. Following incubation at 4° C. for 30 minutes, cells were washed twice with FACS buffer (200×g, 5 minutes each), and resuspended in approximately 250 μL FACS buffer. FACS analysis was performed with Attune Flow cytometer using tube reading module.

Kd (cynomolgus CD25) [nM]	koff (cynomolgus CD25) [s⁻¹]	kon (cynomolgus CD25) [M⁻¹ s⁻¹]	EC50 (read off the curve) [1] [µg/mL]	Binder
18.5	0.000714	38500	~0.5	antibody 14569 (antibody, human IgG4 S228P, kappa, V domains shown) VH: EVQLVESGGGLVQPGGSLRLSCAASGYWFSSWGMSWVRQAPGKGLELVSTINGYGDTTYYPDSVKGRFTISRDNSKNTLYLQMNSLRAEDTAVYYCARDRDYSNSYYYAHDYWGQGTLVTVSS VL: EIVLTQSPATLSLSPGERATLSCRASSYVSFMHWLQQKPGQAPRPWIYATMNLASGVPARFSGSGSGTDYTLTISSLEPEDFAVYYCQQWSSNPPAFGGGTKVEIKR
17.4	0.000744	42600	~0.6	antibody 14564 (antibody, human IgG4 S228P, kappa, V domains shown) VH: EVQLVESGGGLVQPGGSLRLSCAASGFTFSSWGMSWVRQAPGKGLELVSTINGYGDTTYYPDSVKGRFTISRDNSKNTLYLQMNSLRAEDTAVYYCARDRDYSNSYYYAHDYWGQGTLVTVSS VL: EIVLTQSPATLSLSPGERATLSCRASSYVSFMHWLQQKPGQAPRPWIYATANLASGVPARFSGSGSGTDYTLTISSLEPEDFAVYYCQQWSSNPPAFGGGTKVEIKR
19.6	0.000679	34700	~0.4	antibody 14572 (antibody, human IgG4 S228P, kappa, V domains shown) VH: EVQLVESGGGLVQPGGSLRLSCAASGYWFSSYGMSWVRQAPGKGLELVSTINGYGDTTYYPDSVKGRFTISRDNSKNTLYLQMNSLRAEDTAVYYCARDRDYTNSYYYAHDYWGQGTLVTVSS VL: EIVLTQSPATLSLSPGERATLSCRASSYVSFMHWLQQKPGQAPRPWIYATMNLASGVPARFSGSGSGTDYTLTISSLEPEDFAVYYCQQWSSNPPAFGGGTKVEIKR
